According to publication PMC4837482, “The complex binding mode of the peptide hormone H2 relaxin to its receptor RXFP1” (Nature Communications, 2016):
Where no end group is shown, it is not given here. The star is where a group is joined. DTPA = O=C(O)CN(CCN(CC(=O)O)CC(=O)O)CCN(CC(=O)O)CC(=O)*

T1: RXFP1(1–72) (Homo sapiens, UniProt Q9HBX9)
T1 construct: GB1 (N, cleaved yes); made in house; host or cells: E. coli BL21 (DE3) trxB
T1 sequence (Q9HBX9 23-94 limits assumed): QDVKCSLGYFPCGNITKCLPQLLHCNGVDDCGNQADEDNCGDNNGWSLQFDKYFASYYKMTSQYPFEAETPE

T2: RXFP1 F50A (Homo sapiens, UniProt Q9HBX9, F72A)
T2 construct: expressed in transfected cells; host or cells: HEK293T
T2 sequence (Q9HBX9 23-757 F72A limits assumed): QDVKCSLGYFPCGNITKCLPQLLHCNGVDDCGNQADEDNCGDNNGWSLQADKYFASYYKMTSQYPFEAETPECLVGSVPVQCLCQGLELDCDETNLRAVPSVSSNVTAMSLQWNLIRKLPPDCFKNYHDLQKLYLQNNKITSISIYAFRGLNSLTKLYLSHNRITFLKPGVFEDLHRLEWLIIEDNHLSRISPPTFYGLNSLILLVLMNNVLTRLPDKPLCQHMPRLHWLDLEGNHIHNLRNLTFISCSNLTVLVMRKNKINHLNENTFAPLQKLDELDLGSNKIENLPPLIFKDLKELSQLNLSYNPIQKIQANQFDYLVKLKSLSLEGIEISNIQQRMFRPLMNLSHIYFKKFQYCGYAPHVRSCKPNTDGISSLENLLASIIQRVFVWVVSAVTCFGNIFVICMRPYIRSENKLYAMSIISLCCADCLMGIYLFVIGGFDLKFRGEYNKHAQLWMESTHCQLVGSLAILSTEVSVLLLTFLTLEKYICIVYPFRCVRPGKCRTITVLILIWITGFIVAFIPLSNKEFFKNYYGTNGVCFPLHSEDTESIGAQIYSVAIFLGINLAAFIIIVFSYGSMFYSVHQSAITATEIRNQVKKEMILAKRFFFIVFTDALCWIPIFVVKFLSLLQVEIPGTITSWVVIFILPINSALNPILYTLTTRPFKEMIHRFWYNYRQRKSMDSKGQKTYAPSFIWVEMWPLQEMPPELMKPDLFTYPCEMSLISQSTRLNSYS

T3: relaxin family peptide receptor-1 (RXFP1), wild type, full length (human, UniProt Q9HBX9 23-757)
T3 construct: also called wild-type RXFP1; source: HEK293T, transiently transfected, on cells; not shown: FLAG, N-terminal, kept
T3 sequence (looked up): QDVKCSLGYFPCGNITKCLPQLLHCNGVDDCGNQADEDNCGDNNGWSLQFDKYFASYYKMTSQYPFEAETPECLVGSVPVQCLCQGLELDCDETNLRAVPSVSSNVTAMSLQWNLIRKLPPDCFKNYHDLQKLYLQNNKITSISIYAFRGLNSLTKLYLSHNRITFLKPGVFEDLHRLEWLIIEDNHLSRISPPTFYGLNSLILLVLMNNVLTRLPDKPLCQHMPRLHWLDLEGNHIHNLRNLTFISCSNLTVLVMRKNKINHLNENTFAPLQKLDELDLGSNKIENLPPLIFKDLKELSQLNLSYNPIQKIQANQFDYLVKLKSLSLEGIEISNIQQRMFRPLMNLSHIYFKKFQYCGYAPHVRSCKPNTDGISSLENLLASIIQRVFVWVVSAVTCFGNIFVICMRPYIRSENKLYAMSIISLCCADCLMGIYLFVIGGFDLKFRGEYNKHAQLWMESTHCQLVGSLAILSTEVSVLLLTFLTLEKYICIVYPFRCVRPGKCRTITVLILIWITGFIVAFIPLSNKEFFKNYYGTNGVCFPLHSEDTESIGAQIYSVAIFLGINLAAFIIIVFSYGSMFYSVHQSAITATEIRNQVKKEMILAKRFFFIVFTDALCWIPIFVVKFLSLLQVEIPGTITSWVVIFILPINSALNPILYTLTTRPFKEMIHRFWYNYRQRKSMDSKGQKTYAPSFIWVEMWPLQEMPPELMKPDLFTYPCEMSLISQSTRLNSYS


Tests used:
[1] = biological target: T1, RXFP1(1–72); experiment: NMR competition titration against the RXFP1(1–72)/Mn2+-DTPA-(A)-H2 complex; format: binding; conditions: 50 μM peptide added to 50 μM 15N-RXFP1(1–72) with 0.2 μM Mn2+-DTPA-(A)-H2; pH 6.8, 25 °C
Procedure: All RXFP1(1–72) protein samples for nuclear magnetic resonance (NMR) experiments were prepared from lyophilized protein in 50 mM imidazole, with 10 mM CaCl2 at pH 6.8. Recombinant human gene-2 H2 relaxin peptide was kindly provided by Corthera. EL1^(475–486)/EL2-GB1 samples were prepared as described above. Titrant and titrand were dialyzed in the same buffer in the same vessel. All NMR experiments were routinely collected at 25 °C on a 700-MHz Bruker Avance HDIII spectrometer equipped with triple resonance cryoprobe. […] Backbone assignments were made from 3D HNCACB, HNCOCACB, HNCO and HNCACO experiments. Spectra were processed using NMRPipe (ref. [43]) and typically Fourier-transformed after applying Lorentz-to-Gauss window functions in the direct dimension and cosine bells in the indirect dimensions. NMR data were analysed using SPARKY (Goddard, T.D. and Kneller, D.G., University of California, San Francisco). Assignments of the mutant RXFP1(1–72) proteins were determined from the assignments of wild-type RXFP1(1–72).
^15N{^1H}-NOE experiments[45] (2,048 × 256 data points) were acquired with a saturation pulse of 4 s and an additional relaxation delay of 5 s. Sample conditions were 150 μM RXFP(1–72) or mutants either without or with 450 μM H2 relaxin. Binding to Mn^2+-DTPA-(A)-H2 to RXFP1(1–72) and mutants was monitored by recording 2D ^1H-^15N HSQC (2,048 × 256 data points) for 0.2 μM Mn^2+-DTPA-(A)-H2 against 50 μM RXFP1(1–72). H2 relaxin and its truncates such as A-chain (9–24), H2/I5 chimera and Phe23Ala A-chain mutant H2 were titrated into a complex of 50 μM RXFP1(1–72) and 0.2 μM Mn^2+-DTPA-(A)-H2 with increasing concentrations ranging from 5 to 50 μM.

[2] = biological target: T2, RXFP1 F50A; experiment: Eu-H2 relaxin saturation binding assay, transfected HEK293T cells; conditions: F50A RXFP1 versus wild-type RXFP1
[3] = biological target: LRR domain of RXFP1; experiment: Affinity for the LRR domain predicted from the titration data; parameters: species or system human; conditions: predicted from the RXFP1(1–72) titration data
[4] = biological target: T3, relaxin family peptide receptor-1 …; experiment: europium-labelled ligand saturation binding on cells (time-resolved fluorescence); HEK293T cells transiently transfected with receptor, 96-well plates; increasing Eu-H2 relaxin (maximum 15 nM) with or without 1 μM unlabelled H2 relaxin, 1 h, room temperature; 20 mM HEPES pH 7.5, 1.5 mM CaCl2, 50 mM NaCl, 0.01% NaN3, 1% BSA; one-site fit; conditions: one partner purified

| Molecule | competition with Mn2+-DTPA-(A)-H2 for RXFP1(1–72) (peak intensities, chemical shifts) [1] | loss in H2 relaxin binding [2] | Kd [3] [nM] | Kd [4] [nM] |
| --- | --- | --- | --- | --- |
| H2 relaxin: two-chain 6-kDa peptide hormone structurally related to insulin; recombinant human gene-2 H2 relaxin provided by Corthera | reappearance of the broadened peaks | tenfold | ~1000 | – |
| Europium-labelled H2 relaxin (ligand, human, not fully specified; ends and bridges not checked; also: DTPA cage loaded with Eu^3+, A chain of human gene-2 (H2) relaxin; numbers count on: the A chain; B chain of human gene-2 (H2) relaxin; numbers count on: the B chain; also called Eu-H2 relaxin; Eu-H2) chain 1: {DTPA}-QLYSALANKCCHVGCTKRSLARFC chain 2: DSWMEEVIKLCGRELVRAQIAICGMSTWS | – | – | – | 0.57 |
